Measured values: paper PMC4234289, “The LexA regulated genes of the Clostridium difficile” (BMC Microbiology, 2014)

Molecular target: T1, C. difficile RecA, activated (RecA*) (Clostridium difficile 630, UniProt Q18BJ4 1-348)
T1 construct: Protein RecA (recombinase A) of Clostridium difficile strain 630; also called RecA* (CD); source: E. coli BL21 (DE3), purified (Ni-NTA, PD10 desalting)
T1 sequence (looked up): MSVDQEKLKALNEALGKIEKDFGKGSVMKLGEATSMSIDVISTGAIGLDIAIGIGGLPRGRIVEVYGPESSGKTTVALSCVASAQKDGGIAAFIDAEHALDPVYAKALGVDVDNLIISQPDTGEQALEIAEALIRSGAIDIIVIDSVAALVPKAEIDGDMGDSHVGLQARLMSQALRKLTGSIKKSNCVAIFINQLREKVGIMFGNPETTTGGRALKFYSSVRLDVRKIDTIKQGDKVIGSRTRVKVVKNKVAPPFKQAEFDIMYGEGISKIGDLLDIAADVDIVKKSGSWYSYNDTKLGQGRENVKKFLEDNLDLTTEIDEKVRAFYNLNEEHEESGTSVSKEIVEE
Assay: SPR; Biacore X, 25°C; RecA* immobilised on the chip (~2000 response units); LexA (2.6 μM) incubated with non-specific 22-bp DNA (recA operator with six nucleotides changed, 1.4-8.1 μM) passed over at 10 μl/min for 60 s; 20 mM NaH2PO4 pH 7.4, 150 mM NaCl, 2 mM MgCl2, 1 mM DTT, 1 mM ATP, 0.005% P20
Conditions: both partners purified

B1: C. difficile LexA repressor (natural protein, Clostridium difficile 630, UniProt Q187P1 1-211, looked up)
chain: MYLDLTEKQVLILEFIKSQIILKGYPPAVREICTAVGLRSTSTVHSHLNKLEKLGYIRKDPTKPRAIEVLERSKVNDVSGANQEIIELPLVGQITAGEPILAQQNIEEYIPFPASLVKGSNNFVLRVKGESMINAGILDEDYVVVDKKNTALNSQIVVALINGESATVKRFFKEGNLIRLQPENDFMEPIMLNDSEVEIVGIVTGVFRVIK
notes: LexA repressor of Clostridium difficile strain 630; In the SPR with RecA* LexA was pre-incubated with 22-bp DNA; also called LexA (CD); DinR; source: E. coli BL21 (DE3), purified (Ni-NTA, PD10 desalting)
B1: binds.
